Reference: patent US20230272088A1 (SYNTHEKINE, published 2023)
Values belong to the binder of their own block, whether it stands above or below them.

What was measured:
[1] = target: T1, extracellular domain of hIFNGR1 (human, UniProt P15260 18-245, conjugated to Alexa647 (site not stated)); experiment: flow cytometry, yeast-displayed VHH, 100 nM Alexa647-conjugated antigen
T1 construct: UniProt P15260 residues 18-245; also called hIFNGR1-ECD; human IFNGR1 ECD
T1 sequence: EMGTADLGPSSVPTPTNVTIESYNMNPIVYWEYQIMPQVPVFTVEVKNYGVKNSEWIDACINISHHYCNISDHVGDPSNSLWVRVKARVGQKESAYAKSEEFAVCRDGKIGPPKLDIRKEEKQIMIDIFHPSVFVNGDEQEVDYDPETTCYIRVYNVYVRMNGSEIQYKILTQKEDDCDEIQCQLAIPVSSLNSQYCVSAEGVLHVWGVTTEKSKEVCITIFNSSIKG
Procedure: (§1) Binding of individual VHH to human and murine antigen was tested by flow cytometry. Briefly, 2E5 yeast cells expressing a single sdAb clone were added to each well of a 96 well plate. The first plate was incubated with 100 nM of human antigen conjugated to Alexa647 whereas the second plate was incubated with 100 nM of murine antigen conjugated to Alexa647. Yeast cells were washed 3 times with PBS containing 1% bovine serum albumin. Yeast cells were analyzed using flow cytometry and clones showing a mean fluorescence intensity of greater than 1000 were considered as binding molecules. Specificity of sdAbs was confirmed by incubating yeast cells with a irrelevant protein conjugated to Alexa647. Positive clones were sequenced, and sequences analyzed to identify unique clonotypes.

[2] = target: T2, extracellular domain of mIFNGR1 (mouse, UniProt P15261 26-254, conjugated to Alexa647 (site not stated)); experiment: as above
T2 construct: Origin and tags of the murine antigen are not described; UniProt P15261 residues 26-254; also called mIFNGR1-ECD; murine IFNGR1 ECD
T2 sequence: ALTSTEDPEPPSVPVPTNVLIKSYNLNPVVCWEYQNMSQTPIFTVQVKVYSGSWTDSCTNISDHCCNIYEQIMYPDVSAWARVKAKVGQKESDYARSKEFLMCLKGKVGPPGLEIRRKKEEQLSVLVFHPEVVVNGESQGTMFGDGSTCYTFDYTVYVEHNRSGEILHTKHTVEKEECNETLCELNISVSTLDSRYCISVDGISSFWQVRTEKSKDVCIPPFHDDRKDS
Procedure: as §1

[3] = target: T3, extracellular domain of hIFNGR2 (human, UniProt P38484 28-247, conjugated to Alexa647 (site not stated)); experiment: flow cytometry
T3 construct: also called hIFNGR2-ECD; human IFNGR2 ECD
T3 sequence: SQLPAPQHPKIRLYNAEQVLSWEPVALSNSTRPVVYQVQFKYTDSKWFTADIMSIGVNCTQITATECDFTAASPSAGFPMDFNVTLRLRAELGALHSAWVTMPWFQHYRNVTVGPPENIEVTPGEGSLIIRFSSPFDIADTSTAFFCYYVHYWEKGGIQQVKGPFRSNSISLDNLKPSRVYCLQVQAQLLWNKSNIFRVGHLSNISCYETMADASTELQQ

B1: DR906 (VHH)
VHH: EVQLVESGGGLVQAGGSLRLSCAASGSTFSTYVMGWFRQAPGKEREFVAAISRSGGTTTYADSVKGRFDISRDNGKNTLFLQMNSLIPEDTAAYYCAARAGPAIGRTANDYHSWGQGTLVTVSS
notes: also called anti-IFNGR1 sdAb VHH DR906
- binding result [1]: binds
- binding result [2]: binds

B2: DR912 (VHH)
VHH: EVQLVESGGGLVQAGGSLRLSCAPSGRTFSSYAMAWFRQPPGKEREFVAAITVSGASTYYADSVKGRFTISRDNAKNSMYLQMNSLKPEDTAVYYCAAGGPGTIFPDYDYWGQGTQVTVSS
notes: also called anti-IFNGR1 sdAb VHH DR912
- binding result [1]: binds
- binding result [2]: binds

B3: DR916 (VHH)
VHH: EVQLVESGGGLVQPGGSLRLSCTASGRPRTTYAMGWFRQAPGKEREIVAAISKAGGSTYVADSAKGRFAISKDNAKNTVYLQMNSLKPEDTAVYYCAARAGFAAQIFEYDYWGQGTLVTVSS
notes: also called anti-IFNGR1 sdAb VHH DR916
- binding result [1]: binds
- binding result [2]: binds

B4: DR911 (VHH)
VHH: EVQLVESGGALVQAGGSLRLSCTVSGRSFSTYAMAWFRRAPGKERELVSAITVGGGSTYYVDSVKGRFTISRENAKNTLYLQMNNLKPEDTAIYICAARDYRRRSYAPEAEQYDYWGQGTQVTVSS
notes: also called anti-IFNGR1 sdAb VHH DR911
- binding result [1]: binds
- binding result [2]: binds

B5: DR909 (VHH)
VHH: EVQLVESGGGLVQAGGSLRLSCAASGRTFGTSFGALSMGWFRQAPGKEREFVAAITRNTGRTFYADSVKDRFTISRDNAKNTASLQMNSLEPEDTAVYICAATNSYDDLRRSYAYNYWGQGTQVTVSS
notes: also called anti-IFNGR1 sdAb VHH DR909
- binding result [1]: binds
- binding result [2]: binds

B6: DR910 (VHH)
VHH: EVQLVESGGGLVQTGGSLRLSCAASGRTFSSYAMAWFRQAPGKEREFVAAISILGGSADYEDSVQGRFTISRDNAKNTMYLQMNSLKPEDTAVYYCAARRPAPSDSYWSSTSYAYWGQGTLVTVSS
notes: also called anti-IFNGR1 sdAb VHH DR910
- binding result [1]: binds
- binding result [2]: binds

B9: DR917 (VHH)
VHH: EVQLVESGGGLVQAGGSLRLSCAASGRTFSGYNMGWFRQAPGKEREFVAAIAWAGSRTYYTDSVKGRFTISRDNAKNTMYLQMNTLRPEDTAVYYCAAHDETYYRLDRVDLYTHWGQGTLVTVSS
notes: also called anti-IFNGR1 sdAb VHH DR917
- binding result [1]: binds
- binding result [2]: binds

B10: DR904 (VHH)
VHH: EVQLVESGGGLVQAGGSLRLSCEASESILSINTMGWFRQAPGKQRELVAAISSGGSTNYADSVKGRFTISRDNAKNTVYLQMNSLKPEDTAVYYCDADRAYYKGQGTQVTVSS
notes: also called anti-IFNGR1 sdAb VHH DR904
- binding result [1]: binds

B12: DR926 (VHH)
VHH: EVQLVESGGGLVQAGGSLRLSCAASGRTFSRYAMNWFRQAPGKEREFVAAISWSSGNTYVADSVKGRFTISRDNAKNTMYLQMNNLAPEDTAVYYCAATTIATMSDENTYWGQGTQVTVSS
notes: also called anti-IFNGR1 sdAb VHH DR926
- binding result [1]: binds
- binding result [2]: binds

B13: DR905 (VHH)
VHH: EVQLVESGGGLVQAGGSLRLSCVASGRTFTGYAMGWFRQAPGKEREFVAVITWSGATTYYSASVKGRFTLSRDNAKNTVYLQMNSLKSEDTAVYYCAIRIRDGVSPENPNEYGYWGQGTQVTVSS
notes: also called anti-IFNGR1 sdAb VHH DR905
- binding result [1]: binds
- binding result [2]: binds

B14: DR919 (VHH)
VHH: EVQLVESGGGLVQPGGFLRLSCAASRRTLSTYAMGWFRQAPGKEREFVAAISWRSGNTYYADSVKGRFTISRDNAKNTMYLQMNSLKPEDTAVYYCAANEVATMSGPHDHWGQGTLVTVSS
notes: also called anti-IFNGR1 sdAb VHH DR919
- binding result [1]: binds

B15: DR956 (VHH)
VHH: EVQLVESGGGLVQAGGSLRLSCAASGRTFSSLAMAWFRQAPGKEREFVAATTILGGSADYGDPVKGRFTISRDNAKNTVYLQMNSLKPEDTAVYYCTGRRPAPSDNYWSPASYAYWGQGTQVTVSS
notes: also called anti-IFNGR2 sdAb VHH DR956
- binding result [3]: binds

B17: DR925 (VHH)
VHH: EVQLVESGGGLVQAGGSLVLSCAASGRTFSRYAMGWFRQAPGKEREFVAAISIGGGSADYADTVKGRFTISRNNAKNTMYLQMNSLKPEDTAVYYCAARTPRPSSSYFTPQDYEYWGQGTLVTVSS
notes: also called anti-IFNGR1 sdAb VHH DR925
- binding result [1]: binds
- binding result [2]: binds

B19: DR921 (VHH)
VHH: QVQLVESGGGLVQAGDSLRLSCAASGRTFTFSTHNMGWFRQAPGKEREFVGGIMWTSRASYADSVKGRFTVSRDNAKNTVYLQMNSLKPEDTAVYYCAAAWYGNSGASYDYWGQGTQVTVSS
notes: also called anti-IFNGR1 sdAb VHH DR921
- binding result [1]: binds

B23: DR920 (VHH)
VHH: EVQLVESGGGLVQAGGSLRLSCAASGRSFANYAMGWFRQAPGKERETVAAISRGGGSTWYADSVKGRFTISKDNAKNTVYLQMNSLKPEDTAIYYCAARSYSGSYTYSFGEYDYWGQGTQVTVSS
notes: also called anti-IFNGR1 sdAb VHH DR920
- binding result [1]: binds
- binding result [2]: binds

B24: DR923 (VHH)
VHH: QVQLVESGGGLVQAGGSLRLSCAASRRTFMTYAMGWFRQAPGKEREFVAAISWSSGSTYYADSVKGRFTISRDNAKNTMYLQMNSLKPEDTAVYYCTASSIATMYGPNDYAGQGTLVTVSS
notes: also called anti-IFNGR1 sdAb VHH DR923
- binding result [1]: binds
- binding result [2]: binds

Other lines, results leading:

- binding result [3]: binds
B7: DR958 (VHH)
VHH: QVQLVESGGGLVQAGDSLTLSCTASGRTFSGYNMGWFRQAPGKERDFVAAINWIGGATYYADSVKGRFTISRDNAKNTVYLQMNSLKPEDTAVYYCHRYSEKFYSGKDYYTRDYDYWGQGTQVTVSS
notes: also called anti-IFNGR2 sdAb VHH DR958

- binding result [1]: binds
- binding result [2]: binds
B8: DR924 (VHH)
VHH: QVQLVESGGGLVQAGGSLRLSCTASGRTFSRYAMGWFRQAPGKEREFVATISRSGGTTSYANSVKGRFTISRDNAKNTVYLQMNSLKTEDTAVYNCAARDGPAMGVFGSDYDYWGQGTLVTVSS
notes: also called anti-IFNGR1 sdAb VHH DR924

- binding result [1]: binds
- binding result [2]: binds
B11: DR922 (VHH)
VHH: QVQLVESGGGLVRAGGSLRLSCAASGSITSINTMGWFRQAPGKQRELVAAITSGGSTNYADSVKGRFTISRDNARNTVYLQMYSLKPEDTAVYYCEADSMYFRGQGTQVTVSS
notes: also called anti-IFNGR1 sdAb VHH DR922

- binding result [1]: binds
- binding result [2]: binds
B16: DR914 (VHH)
VHH: EVQLVESGGGLVQAGGSLTLSCVASGRAFSNSAMAWFRQTPGKEREFVSAISRGGGSTDYADSVKGRFTISKDNAKNTVYLQMNSLKPEDTAVYYCAMRYYSGRYYESLEYDYWGQGTQVTVSS
notes: also called anti-IFNGR1 sdAb VHH DR914

- binding result [1]: binds
- binding result [2]: binds
B18: DR918 (VHH)
VHH: EVQLVESGGGLVQAGGSLRLSCATSGLTDSTYGMAWFRQAPGKEREFVAAISRAGGSADHADSVKGRFTVSRDNAKKMVYLQMNSLKPEDTAVYYCASGRSYSSPYDYFNALAYSYWGQGTQVTVSS
notes: also called anti-IFNGR1 sdAb VHH DR918

- binding result [3]: binds
B20: DR953 (VHH)
VHH: QVQLVESGGGLVQAGDSLRLSCAASGPTFSTYAMAWFRQAPGKEREFVAAITQSGRTTYYEDSVKGRFTISKDNAKNTLYLQMNSLQPEDTAVYYCAARDLWSDSPDDWRIYSFWGQGTQVTVSS
notes: also called anti-IFNGR2 sdAb VHH DR953

- binding result [1]: binds
- binding result [2]: binds
B21: DR915 (VHH)
VHH: EVQLVESGGGLVQAGGSLRLSCAAARRTLHNFAMAWFRQAPGKEREFVAAISKGGGSADYADSVKGRFTISRDNAKNTVYLQMNSLKPEDTAVYYCAANDLASYSDSSYTSTSRYDYWGQGTQVTVSS
notes: also called anti-IFNGR1 sdAb VHH DR915

- binding result [1]: binds
- binding result [2]: binds
B22: DR913 (VHH)
VHH: EVQLVESGGGLVQAGGFLRLSCAASGRTFSSYAMGWFRQIPGKERELVAAISSWSGGSTYYADSVKGRFTISRDNAKNTVYLQMLSLKPEDTAVYYCTTGDYYSDYFKYDNENWGKGTQVTVSS
notes: also called anti-IFNGR1 sdAb VHH DR913
